The values below are quoted from earlier work in paper PMC3204931.

This data set has as its target Rac2 (Homo sapiens) (UniProt P15153).

What is called Kd is the equilibrium constant for the complex coming apart. Consider PLD2 (from UniProt O14939), for which the Kd was 0.01 µM.
